Experimental data published in patent US20160272693A1 (ZEALAND PHARMA A S, published 2016).
Blank lines part the entries; values can stand above or below the binder they belong to. *1 amine or outer side, *2 acyl side, *3 side chain or, on linkers, in order; H or OH if unused. Bridges are numbered along the chain shown (N, C = ends). [ ]: non-standard residue; d: D form. The star is where a group is joined. C20 diacid = O=C(O)CCCCCCCCCCCCCCCCCCC(=O)*; γGlu = O=C(O)[C@H](CCC(=O)[*:2])N[*:1]; Hyp = O=C(O)[C@@H]1C[C@@H](O)CN1; NMeI = CC[C@H](C)[C@H](NC)C(=O)O; Sar = CNCC(=O)O

Target: T1, human amylin receptor 3 (hAMYR3), hCTR2 co-expressed with human receptor activity modifying protein 3 (hRAMP3) (human, UniProt P30988 25-474; O60896 24-148)
T1 sequence (looked up) 1: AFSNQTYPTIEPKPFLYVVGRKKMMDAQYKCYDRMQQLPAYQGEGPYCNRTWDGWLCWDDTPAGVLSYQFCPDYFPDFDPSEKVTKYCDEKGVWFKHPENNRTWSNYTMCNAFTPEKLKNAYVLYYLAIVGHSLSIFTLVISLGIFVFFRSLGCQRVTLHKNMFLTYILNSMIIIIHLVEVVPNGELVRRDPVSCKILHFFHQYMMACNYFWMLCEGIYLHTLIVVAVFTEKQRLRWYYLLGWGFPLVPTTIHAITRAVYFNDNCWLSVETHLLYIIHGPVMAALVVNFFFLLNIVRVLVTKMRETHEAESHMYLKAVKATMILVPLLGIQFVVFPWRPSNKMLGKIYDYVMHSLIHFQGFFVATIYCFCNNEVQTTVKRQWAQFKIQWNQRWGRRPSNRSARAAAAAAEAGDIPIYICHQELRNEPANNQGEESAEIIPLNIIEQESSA
T1 sequence (looked up) 2: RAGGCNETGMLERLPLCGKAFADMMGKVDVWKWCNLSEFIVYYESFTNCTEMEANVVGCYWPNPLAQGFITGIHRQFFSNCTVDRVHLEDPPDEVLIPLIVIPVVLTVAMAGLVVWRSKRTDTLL
Test: cell-based or functional assay

- hAMYR3 EC50 (nM); cAMP induction: 0.2 nM
Binder: {C20 diacid}-[γGlu]RCNTATCATQRLANFLHRSSF[Sar]A[NMeI]LSSTEVGSETP-NH2 (disulfide 3-8) [[19CD]-isoGlu-R-C( )-NTAT-C( )-ATQRLANFLHRSSF-Gly(Me)-A-Ile(Me)-LSSTEVGSETP-NH2 (Compd. 3)]

- hAMYR3 EC50 (nM); cAMP induction: 0.29 nM
B3: [19CD]-isoGlu-R-C( )-GTAT-C( )-ATERLAHFLVRSSF-Gly(Me)-A-Ile(Me)-LSSTEVGSST-Hyp-NH2 (Compd. 31) (peptide)
peptide: {C20 diacid-γGlu}-RCGTATCATERLAHFLVRSSF[Sar]A[NMeI]LSSTEVGSST[Hyp]-NH2
modifications: disulfide 2-7
SMILES: CC[C@H](C)[C@@H](C(=O)N[C@@H](CC(C)C)C(=O)N[C@@H](CO)C(=O)N[C@@H](CO)C(=O)N[C@H](C(=O)N[C@@H](CCC(=O)O)C(=O)N[C@H](C(=O)NCC(=O)N[C@@H](CO)C(=O)N[C@@H](CO)C(=O)N[C@H](C(=O)N1C[C@H](O)C[C@H]1C(N)=O)[C@@H](C)O)C(C)C)[C@@H](C)O)N(C)C(=O)[C@H](C)NC(=O)CN(C)C(=O)[C@H](Cc1ccccc1)NC(=O)[C@H](CO)NC(=O)[C@H](CO)NC(=O)[C@H](CCCNC(=N)N)NC(=O)[C@@H](NC(=O)[C@H](CC(C)C)NC(=O)[C@H](Cc1ccccc1)NC(=O)[C@H](Cc1c[nH]cn1)NC(=O)[C@H](C)NC(=O)[C@H](CC(C)C)NC(=O)[C@H](CCCNC(=N)N)NC(=O)[C@H](CCC(=O)O)NC(=O)[C@@H](NC(=O)[C@H](C)NC(=O)[C@@H]1CSSC[C@H](NC(=O)[C@H](CCCNC(=N)N)NC(=O)CC[C@H](NC(=O)CCCCCCCCCCCCCCCCCCC(=O)O)C(=O)O)C(=O)NCC(=O)N[C@@H]([C@@H](C)O)C(=O)N[C@@H](C)C(=O)N[C@@H]([C@@H](C)O)C(=O)N1)[C@@H](C)O)C(C)C

- hAMYR3 EC50 (nM); cAMP induction: 0.12 nM
B4: [19CD]-isoGlu-R-C( )-GTAT-C( )-ATERLAHFLQRSSF-Gly(Me)-A-Ile(Me)-LSSTEVGSSTP-NH2 (Compd. 34) (peptide)
peptide: {C20 diacid}-[γGlu]RCGTATCATERLAHFLQRSSF[Sar]A[NMeI]LSSTEVGSSTP-NH2
modifications: disulfide 3-8
SMILES: CC[C@H](C)[C@@H](C(=O)N[C@@H](CC(C)C)C(=O)N[C@@H](CO)C(=O)N[C@@H](CO)C(=O)N[C@H](C(=O)N[C@@H](CCC(=O)O)C(=O)N[C@H](C(=O)NCC(=O)N[C@@H](CO)C(=O)N[C@@H](CO)C(=O)N[C@H](C(=O)N1CCC[C@H]1C(N)=O)[C@@H](C)O)C(C)C)[C@@H](C)O)N(C)C(=O)[C@H](C)NC(=O)CN(C)C(=O)[C@H](Cc1ccccc1)NC(=O)[C@H](CO)NC(=O)[C@H](CO)NC(=O)[C@H](CCCNC(=N)N)NC(=O)[C@H](CCC(N)=O)NC(=O)[C@H](CC(C)C)NC(=O)[C@H](Cc1ccccc1)NC(=O)[C@H](Cc1c[nH]cn1)NC(=O)[C@H](C)NC(=O)[C@H](CC(C)C)NC(=O)[C@H](CCCNC(=N)N)NC(=O)[C@H](CCC(=O)O)NC(=O)[C@@H](NC(=O)[C@H](C)NC(=O)[C@@H]1CSSC[C@H](NC(=O)[C@H](CCCNC(=N)N)NC(=O)CC[C@H](NC(=O)CCCCCCCCCCCCCCCCCCC(=O)O)C(=O)O)C(=O)NCC(=O)N[C@@H]([C@@H](C)O)C(=O)N[C@@H](C)C(=O)N[C@@H]([C@@H](C)O)C(=O)N1)[C@@H](C)O

The remaining lines, values behind:

B1: [19CD]-isoGlu-R-C( )-GTAT-C( )-ATERLAHFLQRSSF-Gly(Me)-A-Ile(Me)-LSSTEVGSFT-Hyp-NH2 (Compd. 32) (peptide)
peptide: {C20 diacid}-[γGlu]RCGTATCATERLAHFLQRSSF[Sar]A[NMeI]LSSTEVGSFT[Hyp]-NH2
modifications: disulfide 3-8
SMILES: CC[C@H](C)[C@@H](C(=O)N[C@@H](CC(C)C)C(=O)N[C@@H](CO)C(=O)N[C@@H](CO)C(=O)N[C@H](C(=O)N[C@@H](CCC(=O)O)C(=O)N[C@H](C(=O)NCC(=O)N[C@@H](CO)C(=O)N[C@@H](Cc1ccccc1)C(=O)N[C@H](C(=O)N1C[C@H](O)C[C@H]1C(N)=O)[C@@H](C)O)C(C)C)[C@@H](C)O)N(C)C(=O)[C@H](C)NC(=O)CN(C)C(=O)[C@H](Cc1ccccc1)NC(=O)[C@H](CO)NC(=O)[C@H](CO)NC(=O)[C@H](CCCNC(=N)N)NC(=O)[C@H](CCC(N)=O)NC(=O)[C@H](CC(C)C)NC(=O)[C@H](Cc1ccccc1)NC(=O)[C@H](Cc1c[nH]cn1)NC(=O)[C@H](C)NC(=O)[C@H](CC(C)C)NC(=O)[C@H](CCCNC(=N)N)NC(=O)[C@H](CCC(=O)O)NC(=O)[C@@H](NC(=O)[C@H](C)NC(=O)[C@@H]1CSSC[C@H](NC(=O)[C@H](CCCNC(=N)N)NC(=O)CC[C@H](NC(=O)CCCCCCCCCCCCCCCCCCC(=O)O)C(=O)O)C(=O)NCC(=O)N[C@@H]([C@@H](C)O)C(=O)N[C@@H](C)C(=O)N[C@@H]([C@@H](C)O)C(=O)N1)[C@@H](C)O
- hAMYR3 EC50 (nM); cAMP induction: 0.23 nM

B2: [19CD]-isoGlu-R-C( )-GTAT-C( )-ATERLAHFLHRSSF-Gly(Me)-A-Ile(Me)-LSSTEVGSST-Hyp-NH2 (Compd. 30) (peptide)
peptide: {C20 diacid}-[γGlu]RCGTATCATERLAHFLHRSSF[Sar]A[NMeI]LSSTEVGSST[Hyp]-NH2
modifications: disulfide 3-8
SMILES: CC[C@H](C)[C@@H](C(=O)N[C@@H](CC(C)C)C(=O)N[C@@H](CO)C(=O)N[C@@H](CO)C(=O)N[C@H](C(=O)N[C@@H](CCC(=O)O)C(=O)N[C@H](C(=O)NCC(=O)N[C@@H](CO)C(=O)N[C@@H](CO)C(=O)N[C@H](C(=O)N1C[C@H](O)C[C@H]1C(N)=O)[C@@H](C)O)C(C)C)[C@@H](C)O)N(C)C(=O)[C@H](C)NC(=O)CN(C)C(=O)[C@H](Cc1ccccc1)NC(=O)[C@H](CO)NC(=O)[C@H](CO)NC(=O)[C@H](CCCNC(=N)N)NC(=O)[C@H](Cc1c[nH]cn1)NC(=O)[C@H](CC(C)C)NC(=O)[C@H](Cc1ccccc1)NC(=O)[C@H](Cc1c[nH]cn1)NC(=O)[C@H](C)NC(=O)[C@H](CC(C)C)NC(=O)[C@H](CCCNC(=N)N)NC(=O)[C@H](CCC(=O)O)NC(=O)[C@@H](NC(=O)[C@H](C)NC(=O)[C@@H]1CSSC[C@H](NC(=O)[C@H](CCCNC(=N)N)NC(=O)CC[C@H](NC(=O)CCCCCCCCCCCCCCCCCCC(=O)O)C(=O)O)C(=O)NCC(=O)N[C@@H]([C@@H](C)O)C(=O)N[C@@H](C)C(=O)N[C@@H]([C@@H](C)O)C(=O)N1)[C@@H](C)O
- hAMYR3 EC50 (nM); cAMP induction: 0.12 nM

B5: [19CD]-isoGlu-R-C( )-GTAT-C( )-ATERLAHFLNRSSF-Gly(Me)-A-Ile(Me)-LSSTEVGSFT-Hyp-NH2 (Compd. 33) (peptide)
peptide: {C20 diacid}-[γGlu]RCGTATCATERLAHFLNRSSF[Sar]A[NMeI]LSSTEVGSFT[Hyp]-NH2
modifications: disulfide 3-8
SMILES: CC[C@H](C)[C@@H](C(=O)N[C@@H](CC(C)C)C(=O)N[C@@H](CO)C(=O)N[C@@H](CO)C(=O)N[C@H](C(=O)N[C@@H](CCC(=O)O)C(=O)N[C@H](C(=O)NCC(=O)N[C@@H](CO)C(=O)N[C@@H](Cc1ccccc1)C(=O)N[C@H](C(=O)N1C[C@H](O)C[C@H]1C(N)=O)[C@@H](C)O)C(C)C)[C@@H](C)O)N(C)C(=O)[C@H](C)NC(=O)CN(C)C(=O)[C@H](Cc1ccccc1)NC(=O)[C@H](CO)NC(=O)[C@H](CO)NC(=O)[C@H](CCCNC(=N)N)NC(=O)[C@H](CC(N)=O)NC(=O)[C@H](CC(C)C)NC(=O)[C@H](Cc1ccccc1)NC(=O)[C@H](Cc1c[nH]cn1)NC(=O)[C@H](C)NC(=O)[C@H](CC(C)C)NC(=O)[C@H](CCCNC(=N)N)NC(=O)[C@H](CCC(=O)O)NC(=O)[C@@H](NC(=O)[C@H](C)NC(=O)[C@@H]1CSSC[C@H](NC(=O)[C@H](CCCNC(=N)N)NC(=O)CC[C@H](NC(=O)CCCCCCCCCCCCCCCCCCC(=O)O)C(=O)O)C(=O)NCC(=O)N[C@@H]([C@@H](C)O)C(=O)N[C@@H](C)C(=O)N[C@@H]([C@@H](C)O)C(=O)N1)[C@@H](C)O
- hAMYR3 EC50 (nM); cAMP induction: 0.15 nM

B6: [19CD]-isoGlu-R-C( )-GTAT-C( )-ATERLAHFLNRSSF-Gly(Me)-A-Ile(Me)-LSSTEVGSSTP-NH2 (Compd. 35) (peptide)
peptide: {C20 diacid}-[γGlu]RCGTATCATERLAHFLNRSSF[Sar]A[NMeI]LSSTEVGSSTP-NH2
modifications: disulfide 3-8
SMILES: CC[C@H](C)[C@@H](C(=O)N[C@@H](CC(C)C)C(=O)N[C@@H](CO)C(=O)N[C@@H](CO)C(=O)N[C@H](C(=O)N[C@@H](CCC(=O)O)C(=O)N[C@H](C(=O)NCC(=O)N[C@@H](CO)C(=O)N[C@@H](CO)C(=O)N[C@H](C(=O)N1CCC[C@H]1C(N)=O)[C@@H](C)O)C(C)C)[C@@H](C)O)N(C)C(=O)[C@H](C)NC(=O)CN(C)C(=O)[C@H](Cc1ccccc1)NC(=O)[C@H](CO)NC(=O)[C@H](CO)NC(=O)[C@H](CCCNC(=N)N)NC(=O)[C@H](CC(N)=O)NC(=O)[C@H](CC(C)C)NC(=O)[C@H](Cc1ccccc1)NC(=O)[C@H](Cc1c[nH]cn1)NC(=O)[C@H](C)NC(=O)[C@H](CC(C)C)NC(=O)[C@H](CCCNC(=N)N)NC(=O)[C@H](CCC(=O)O)NC(=O)[C@@H](NC(=O)[C@H](C)NC(=O)[C@@H]1CSSC[C@H](NC(=O)[C@H](CCCNC(=N)N)NC(=O)CC[C@H](NC(=O)CCCCCCCCCCCCCCCCCCC(=O)O)C(=O)O)C(=O)NCC(=O)N[C@@H]([C@@H](C)O)C(=O)N[C@@H](C)C(=O)N[C@@H]([C@@H](C)O)C(=O)N1)[C@@H](C)O
- hAMYR3 EC50 (nM); cAMP induction: 0.11 nM
